Test results as given in patent US5039791A, “Peptide fragments of tissue plasminogen activator” (Monsanto Company, priority 1989, dated 1991).
Where no end group is shown, it is not given here.

Biological target: T1, fibrin (Homo sapiens, UniProt P02671+P02675+P02679)
T1 construct: purchased Kabi Vitrum
T1 sequence (P02671 20-644 isoform P02671-2 limits assumed): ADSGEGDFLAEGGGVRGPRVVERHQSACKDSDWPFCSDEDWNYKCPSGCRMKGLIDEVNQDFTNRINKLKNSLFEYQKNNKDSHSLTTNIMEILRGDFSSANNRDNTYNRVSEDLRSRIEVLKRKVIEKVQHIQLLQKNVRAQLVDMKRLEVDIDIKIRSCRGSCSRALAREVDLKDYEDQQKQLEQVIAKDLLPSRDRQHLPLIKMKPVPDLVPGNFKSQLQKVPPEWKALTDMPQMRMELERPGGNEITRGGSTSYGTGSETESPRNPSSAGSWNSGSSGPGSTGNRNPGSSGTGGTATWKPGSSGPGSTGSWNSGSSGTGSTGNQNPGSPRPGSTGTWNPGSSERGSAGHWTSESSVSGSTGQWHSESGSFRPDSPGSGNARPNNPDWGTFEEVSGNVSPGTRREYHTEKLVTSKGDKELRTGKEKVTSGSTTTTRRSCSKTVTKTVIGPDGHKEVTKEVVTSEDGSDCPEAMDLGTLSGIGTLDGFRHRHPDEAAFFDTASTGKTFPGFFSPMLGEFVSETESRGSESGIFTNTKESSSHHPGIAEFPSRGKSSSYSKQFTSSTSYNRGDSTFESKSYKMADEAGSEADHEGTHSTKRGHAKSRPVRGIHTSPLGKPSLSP
T1 sequence (P02675 45-491 limits assumed): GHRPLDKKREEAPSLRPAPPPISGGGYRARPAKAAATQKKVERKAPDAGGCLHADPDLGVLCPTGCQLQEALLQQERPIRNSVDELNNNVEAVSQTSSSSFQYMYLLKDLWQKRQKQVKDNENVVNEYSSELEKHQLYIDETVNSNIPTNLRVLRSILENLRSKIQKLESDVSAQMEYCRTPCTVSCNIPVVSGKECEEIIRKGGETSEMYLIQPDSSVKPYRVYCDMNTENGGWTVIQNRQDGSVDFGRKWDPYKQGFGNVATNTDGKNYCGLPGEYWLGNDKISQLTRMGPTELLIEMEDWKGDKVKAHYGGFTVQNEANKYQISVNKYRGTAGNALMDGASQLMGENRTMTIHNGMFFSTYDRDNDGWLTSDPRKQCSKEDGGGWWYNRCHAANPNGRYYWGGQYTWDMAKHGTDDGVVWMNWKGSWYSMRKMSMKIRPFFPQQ
T1 sequence (P02679 27-437 isoform P02679-2 limits assumed): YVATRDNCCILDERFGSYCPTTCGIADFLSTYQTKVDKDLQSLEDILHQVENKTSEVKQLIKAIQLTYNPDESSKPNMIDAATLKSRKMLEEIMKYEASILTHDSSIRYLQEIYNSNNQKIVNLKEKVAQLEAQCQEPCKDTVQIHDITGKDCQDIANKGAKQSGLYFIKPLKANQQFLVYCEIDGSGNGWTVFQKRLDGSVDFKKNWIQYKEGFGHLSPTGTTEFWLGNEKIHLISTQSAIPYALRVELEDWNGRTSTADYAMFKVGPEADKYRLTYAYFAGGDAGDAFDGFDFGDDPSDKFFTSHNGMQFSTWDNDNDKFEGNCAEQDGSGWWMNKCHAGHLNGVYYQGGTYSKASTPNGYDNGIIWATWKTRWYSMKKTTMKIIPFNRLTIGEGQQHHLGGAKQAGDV
Assay: Fibrin binding: binding of tPA to fibrin, tPA antigen in supernatant by ELISA
Conditions: 15 μg/ml peptide; 200 ng/ml single chain melanoma tPA, 200 μg/ml human fibrinogen; no peptide = 48
Procedure: Binding of tPA to fibrin was measured using the conventional method of Rijken et al., J. Biol. Chem. 257, 2920-2925 (1982). This method involves mixing thrombin with a solution containing tPA and fibrinogen, centrifuging the resulting clot and measuring the concentration of tPA antigen in the supernatant. In a final volume of 200 μl, the following were combined: 200 ng/ml single chain melanoma tPA, 200 μg/ml human fibrinogen, 15 μg/ml tPA peptide, 1.1 mg/ml bovine serum albumin, 0.55 mg/ml bovine gamma globulin and 10 mM ε-amino caproic acid in PBSAT. Controls omitted fibrinogen, peptide or both. Mixtures were clotted by the addition of 1 unit/ml bovine thrombin, incubated one hour at room temperature and centrifuged. tPA antigen in the supernatant was measured by conventional ELISA and the percentage bound calculated by difference using the antigen level of a control mixture with no fibrinogen as 0% bound. […] An ELISA assay kit for tPA and PAI-1 was purchased from American Diagnostica Inc. and assays were performed according to printed protocols supplied by the manufacturer with the kit except that a single lot of melanoma tPA from American Diagnostica Inc. (product 111, lot 47-01) was used as the antigen standard throughout this work and 5.0 mg/ml of BSA and 2.5 mg/ml of bovine gamma globulin were included in ELISA buffers.

Substance	% Bound (binding of tPA to fibrin) [%]
CDVPSCSTCGLRQYSQPQFRIKGGL-amide (CDVPSCSTCGLRQYSQPQFRIKGGL-NH2; cysteine pairing not given here) [Peptide 169, 25 amino acid synthetic peptide amide fragment of native human tPA]	55
QQHQSWLRPVLRSNRVEYCWCNSGR-amide (QQHQSWLRPVLRSNRVEYCWCNSGR-NH2; cysteine pairing not given here) [Peptide 145, 25 amino acid synthetic peptide amide fragment of native human tPA]	56
SMILIGKVYTAQNPSAQALGLGKHN-NH2 [Peptide 164]	53
YVFKAGKYSSEFCSTPACSEGNSDC-amide (YVFKAGKYSSEFCSTPACSEGNSDC-NH2; cysteine pairing not given here) [Peptide 159, 25 amino acid synthetic peptide amide fragment of native human tPA]	54
ERFPPHHLTVILGRTYRVVPGEEEQ-NH2 [Peptide 176]	53
WNSSALAQKPYSGRRPDAIRLGLGN [Peptide 155]	54
LRSNRVEYCWCNSGRAQCHSVPVKS-amide (LRSNRVEYCWCNSGRAQCHSVPVKS-NH2; cysteine pairing not given here) [Peptide 146, 25 amino acid synthetic peptide amide fragment of native human tPA]	54
LYFSDFVCQCPEGFAGKCCEIDTRA [Peptide 150, 25 amino acid synthetic peptide fragment of native human tPA]	52
SPSQEIHARFRRGARSYQVICRDEK [Peptide 142]	58
LKNRRLTWEYCDVPSCSTCGLRQYS [Peptide 168, 25 amino acid synthetic peptide fragment of native human tPA]	54
YPSSRCTSQHLLNRTVTDNMLCAGD-amide [Peptide 187, 25 amino acid synthetic peptide amide fragment of native human tPA]	51
EFCSTPACSEGNSDCYFGNGSAYRG [Peptide 160, 25 amino acid synthetic peptide fragment of native human tPA]	56
ERLKEAHVRLYPSSRCTSQHLLNRT-NH2 [Peptide 186]	50
GNSDCYFGNGSAYRGTHSLTESGAS-NH2 [Peptide 161]	57
DGDAKPWCHVLKNRRLTWEYCDVPS-amide (DGDAKPWCHVLKNRRLTWEYCDVPS-NH2; cysteine pairing not given here) [Peptide 167, 25 amino acid synthetic peptide amide fragment of native human tPA]	50
QESSVVRTVCLPPADLQLPDWTECE-amide [Peptide 182, 25 amino acid synthetic peptide amide fragment of native human tPA]	52
RRGARSYQVICRDEKTQMIYQQHQS [Peptide 143]	57
PEGFAGKCCEIDTRATCYEDQGISY-amide (PEGFAGKCCEIDTRATCYEDQGISY-NH2; cysteine pairing not given here) [Peptide 151, 25 amino acid synthetic peptide amide fragment of native human tPA]	53
QLKSDSSRCAQESSVVRTVCLPPAD-amide (QLKSDSSRCAQESSVVRTVCLPPAD-NH2; cysteine pairing not given here) [Peptide 181, 25 amino acid synthetic peptide amide fragment of native human tPA]	49
YSGRRPDAIRLGLGNHNYCRNPDRD-NH2 [Peptide 156]	52
LCAGDTRSGGPQANLHDACQGDSGG-amide [Peptide 189, 25 amino acid synthetic peptide amide fragment of native human tPA]	50
LLNRTVTDNMLCAGDTRSGGPQANL-NH2 [Peptide 188]	52
TAESGAECTNWNSSALAQKPYSGRR-NH2 [Peptide 154]	56
CNSGRAQCHSVPVKSCSEPRCFNGG-amide (CNSGRAQCHSVPVKSCSEPRCFNGG-NH2; cysteine pairing not given here) [Peptide 147, 25 amino acid synthetic peptide amide fragment of native human tPA]	55
